Earlier results, collected in paper PMC5250575.

Biological target: Kv1.3 (Homo sapiens) (UniProt P22001)
UniProt P22001, sequence (P22001 whole entry): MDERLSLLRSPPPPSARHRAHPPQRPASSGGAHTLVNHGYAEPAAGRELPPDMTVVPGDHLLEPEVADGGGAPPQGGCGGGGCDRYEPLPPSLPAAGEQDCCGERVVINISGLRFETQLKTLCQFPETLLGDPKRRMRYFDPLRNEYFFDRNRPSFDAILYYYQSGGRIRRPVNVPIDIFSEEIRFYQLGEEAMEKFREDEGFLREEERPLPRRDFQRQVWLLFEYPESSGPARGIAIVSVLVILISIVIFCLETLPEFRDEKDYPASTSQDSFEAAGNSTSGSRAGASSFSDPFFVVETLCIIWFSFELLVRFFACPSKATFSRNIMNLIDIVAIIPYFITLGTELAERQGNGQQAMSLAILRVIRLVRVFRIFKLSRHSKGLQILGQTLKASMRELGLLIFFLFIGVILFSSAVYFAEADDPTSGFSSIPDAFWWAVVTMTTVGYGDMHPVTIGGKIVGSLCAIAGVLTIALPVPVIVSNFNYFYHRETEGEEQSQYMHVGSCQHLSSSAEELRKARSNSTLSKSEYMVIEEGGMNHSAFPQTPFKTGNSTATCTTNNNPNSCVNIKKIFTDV

With Margatoxin (from UniProt P40755) as the substance, how does the Kd read?
Its Kd is 0.0117 nM.
